Measurements published in the nanobody polyreactivity screen of Harvey et al. (2022).

test: yeast display, Sf9 membrane polyspecificity reagent, FACS + sequencing; frameworks hold sequencing errors
Summary of the method: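 Galactose-induced (36–48 hours) yeast carrying a synthetic nanobody display library were exposed to 10% biotinylated, detergent-solubilized Sf9 membrane reagent at 4 °C for 1 hour. FACS followed streptavidin microbead enrichment, using low and high (top ~1%) gates for expression (anti-HA) and reagent binding (streptavidin). Colony PCR, MiSeq 2 × 250 sequencing and CDR-length filtering followed. Labels for polyreactivity reflect the gate of origin.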

| Sequence | polyreactivity (PSR sort gate) |
| --- | --- |
| QVQLVESGGGLVQAGGSLRLSCAASGRTFGRYAMGWYRQAPGKERELVATITSGGSTNYADSVKGRFTISRDNAKNTVYLQMNSLKPEDTAVYYCAAEFSPSRWAYSEGALRYHYWGQGTQVTVSS | low polyreactivity |
| QVQLVESGGGLVQAGGSLRLSCAASGRTFGRYTMGWYRQAPGKERELVAAINWSGGRTYYADSVKGRFTISRDNAKNTVYLQMNSLKPEDTAVYYCNAVFANTSPEYEYWGQGTQVTVSS | high polyreactivity |
| QVQLVESGGGLVQAGGSLRLSCAASGRTFGRYVMGWYRQAPGKERQLVARIRGSTTSTYYADSVKGRFTISRDNAKNTVYLQMNSLKPEDTAVYYCAASYSPFASSYGYDYWGQGTQVTVSS | high polyreactivity |
| QVQLVESGGGLVQAGGSLRLSCAASGRTFGSKALAWYRPAPGKERELVAAITGGGSTYYADSVKGRFTISRDNAKNTVYLQMNSLKPEDTAVYYCAARGTSGWYRYGYWGQGTQVTVSS | high polyreactivity |
| QVQLVESGGGLVQAGGSLRLSCAASGRTFGSYTMGWYRQAPGKERELVAAITSGGRTNYADSVKGRFTLSRDNAKNTVYLQMTSLKPEATAVYYCAAGLRGGRYRYFAYDYWGQGTQVTVSS | high polyreactivity |
| QVQLVESGGGLVQAGGSLRLSCAASGRTFGSYVMGWYRQAPGKERELVAAISWSSGITYYADSVKGRFTISRDNAKNTVYLQMNSLKPEDTAVYYCAARIWDSRAYYYWGQGTQVTVSS | high polyreactivity |
| QVQLVESGGGLVQAGGSLRLSCAASGRTFGTNAMGWYRQAPGKERELVAAIRRGGSRTYNADSVKGRFTISRDIAKNTVYLQMNSLKPEDTAVYYCAVDYYPYEVSYVRMDYWGQCTQVTVSS | low polyreactivity |
| QVQLVESGGGLVQAGGSLRLSCAASGRTFGTNAMGWYRQAPGKERELVAAISWRGTSTYYADSVKGRFTISRDNAKNTVYLQMNSLKPEDTAVYYCAADFSYTSYATRYQGDYWGQGTQVTVSS | low polyreactivity |
| QVQLVESGGGLVQAGGSLRLSCAASGRTFGTYAMGWYRQAPGKERELVAAINFSGGNTYYADSVKGLFTITRDNAKNTVYLQMNSLKPEDTAVYYCAKRGHSYSLDLYYIVTYDYWGQGTQVTVSS | low polyreactivity |
| QVQLVESGGGLVQAGGSLRLSCAASGRTFGVKAMGWYRQAPGKERELVAAITSGGTTNYADSVKGRFTISRDNAKNTFYLQMNSLKPEDTAVYYCAARSYYPRYGYWGQGTQVTVSS | high polyreactivity |
| QVQLVESGGGLVQAGGSLRLSCAASGRTFGVNAMGWYRQAPGKERELVAAIDSSGGSTYYADSVKGRFTISRDNAKNTVYLQMNSLKPEDTAVYYCAGPYRPDYDYWGQGTQVTVSS | high polyreactivity |
| QVQLVESGGGLVQAGGSLRLSCAASGRTFGVNAMGWYRQAPGKERELVAAISRSTGSTYYADSVKGRFTISRDNAKNTVYLQMNSLKPEDTAVYYCARDVYYRGYKYGYWGQGTQVTVSS | high polyreactivity |
| QVQLVESGGGLVQAGGSLRLSCAASGRTFGVNAMGWYRQAPGKERELVARNRVSGGRTYYADSVKGRFTISRDNAKNTVYLQMNSLKPEDTAVYYFNAGYTYNRVIWPYYYWGQGTQVTVSS | high polyreactivity |
| QVQLVESGGGLVQAGGSLRLSCAASGRTFGVYAMGWNRQPPGKERELVATITSVDRTTYADSVKGRFTFSRDNAKITVYLQMNSLKPEDTAVYYCAAVGRWPRYYYWGQGTQVTVSS | high polyreactivity |
| QVQLVESGGGLVQAGGSLRLSCAASGRTFGVYAMGWYRQAPGKERELVAAITGRGGSTYYADSVKGRFTISRDNAKNTVYLQMNSLKAEDTALYYCNAELYEYQSWDDYWGQGTQVTVSS | low polyreactivity |
| QVQLVESGGGLVQAGGSLRLSCAASGRTFGVYAMGWYRQAPGKERELVATIRTTGSTNYADSVKGRFTISRDNAKNTVYLQMNSLKTEDTAVYYCGARQRQSKYYPYTTFTYDYWGQGTQVTVSS | high polyreactivity |
| QVQLVESGGGLVQAGGSLRLSCAASGRTFGVYAMGWYRQAPGKESELVAAISRLAGNTYYADSVKGRFTISRDNAKNTVYLQMNSLKPEDTAVYYCAADFSRQYGYWGQGTQVTVSS | high polyreactivity |
| QVQLVESGGGLVQAGGSLRLSCAASGRTFGVYVKGWYRQAPGKERELVAAIDDSGGSTYYADSVKGRFTISRDNAKNTVYLQMNSLKPEDTAVYYCAKTKTQYLTSEIRFDYWGQGTQVTVSS | low polyreactivity |
| QVQLVESGGGLVQAGGSLRLSCAASGRTFGWYAMGWYRQAPGKERELVAAIRSSGGRTHYADSVKGRFTISRDNAKNTVYLQMNSLKPEDTAVYYCAARYSAAYYWGQGTQVTVSS | high polyreactivity |
| QVQLVESGGGLVQAGGSLRLSCAASGRTFGWYAMGWYRQAPGKERELVAAISLSGGSTYYADSVKGRFTISRDNAKNTVYLQMNSLKPEDTAVYYCNALILPTKMGYWGQGTQVTVSS | low polyreactivity |
| QVQLVESGGGLVQAGGSLRLSCAASGRTFGWYAMGWYRQAPGKERELVATITRGGSTYYADSVKGRFTISRDNAKNTVYLQMNSLKPEDTAVYYCNARRYLWLRRYDYWGQGTQVTVSS | high polyreactivity |

| Sequence | polyreactivity (PSR sort gate) |
| --- | --- |
| QVQLVESGGGLVQAGGSLRLSCAASGRTFGYNALGWYRQAPGKERELVAAITRGGITHYADSVKGRFTISRDNAKNTVYIQKNSLKPEDTAGYYCAKRGPYYTDDEYYWGQGTQVTVSS | low polyreactivity |
| QVQLVESGGGLVQAGGSLRLSCAASGRTFGYNAMGWYIQAPGKERELVAAINWSGASTYYADYVKGRFTISRDNAKNTVYLQMNSLKPEDTAVYYCAADYSYIYGFDYWGQGTQVTVSS | low polyreactivity |
| QVQLVESGGGLVQAGGSLRLSCAASGRTFGYNAMGWYRQAAGKERELVAAISSSGGSTYYADSVKGRFTISRDNAKNTVYLQMNSLKPEDTAVYYCATQGYSWAHGSDYWGQGTQVTVSS | low polyreactivity |
| QVQLVESGGGLVQAGGSLRLSCAASGRTFGYNAMGWYRQAPGKERELVAAINWSGASTYYADSVKGRFTISRDNAKNTVYLQMNSLKPEDTAVYYCAADYSYIYGFDYWGQGTQVTLSS | low polyreactivity |
| QVQLVESGGGLVQAGGSLRLSCAASGRTFGYNAMGWYRQAPGKERELVATISWGGGSTYYADSVKGRFTISRDNAKNTVYLQMNSLKPEDTAVYYCNKVHYGRRHSYSGAIYGEDYWGQGTQVTVSS | high polyreactivity |
| QVQLVESGGGLVQAGGSLRLSCAASGRTFGYNAMGWYRQAPGKERELVAVITSSGGRTYADSVKGRFTISRDNAKNTVYLQMNSLKPEDTAVYYCATRTRLAQYSRGRYRYDYWGQGTQVTVSS | high polyreactivity |
| QVQLVESGGGLVQAGGSLRLSCAASGRTFGYNAMGWYSQAPGKETELVAAINWSDASTYYADSVKGRFTISRDNAKNTVSLQMNSLKPEDTAVYYCAADYSYIYGFDYWGQGTLVTVSS | low polyreactivity |
| QVQLVESGGGLVQAGGSLRLSCAASGRTFGYYAMGWYRQAPGKEREFVAAISSSGGSTYYADSVKGRFTISRDNAKNTVYLQMNSLKPEDTAVYYCAARRNYFYGYYYWGQGTQVTVSS | high polyreactivity |
| QVQLVESGGGLVQAGGSLRLSCAASGRTFGYYAMGWYRQAPGKERELVAAISNSGGRTYYADSLKGRFTISRDNAKNTVYLQMNSLKPEDTAVYYCAAVVSYRFDYWGQGTQVTVSS | high polyreactivity |
| QVQLVESGGGLVQAGGSLRLSCAASGRTFGYYAMGWYRQAPGKERELVAAISSRGGSTYYADSVKGRFTISRDNAKNTVYLQMNSLKPEDTAVYYCNTRWTNIHPRYDYWGQGTQVTVSS | high polyreactivity |
| QVQLVESGGGLVQAGGSLRLSCAASGRTFGYYAMGWYRQAPGKERELVATITWSGGSTYYADSVKGRFTISRDNAKNTVYLQMNSLKPEDTAVYYCATDALYTYGYDYWGQGTQVTVSS | low polyreactivity |
| QVQLVESGGGLVQAGGSLRLSCAASGRTFGYYAMGWYRQAPGTERELVASISSRGGSSYYADSVKGRFTISRDNAKNTVYLQMNSLKPEDTAVYYCNAPSWSGSRTYYYWGQGTQVTVSS | high polyreactivity |
| QVQLVESGGGLVQAGGSLRLSCAASGRTFGYYAMGWYRQSPGKERELVAAITSGGRTYYADSVKGRFTISRDNAKNTVYLQMNSLKPEDTAVYYCNAPARWGSRVAWYEYWGQGTQVSVSS | high polyreactivity |
| QVQLVESGGGLVQAGGSLRLSCAASGRTFGYYVMGWYRQAPGKERELVAAITYTGGSTYYADSVKGRFTISRDNAKNTVYLQMNSLKPEDTAVYYCATSTYKPTYGYDYWGKGTQVTVSS | low polyreactivity |
| QVQLVESGGGLVQAGGSLRLSCAASGRTFHGYAMGWYRQAPGKERELVAAINASGGRTYYADSVKGRFTISRDNAKNTVYLQMNRLKPEDTAVYYCAVYSASFRYGLAYDYWGQGTQVTVSS | high polyreactivity |
| QVQLVESGGGLVQAGGSLRLSCAASGRTFHIYAMGWYRQAPGKERELVAAIRGRSGSTYYADSVKGRFTISRDNAKNTVYLQMNSLKPEDTAVYYCAAEYWGRYGAPEYDYWGQGTQVTVSS | high polyreactivity |
| QVQLVESGGGLVQAGGSLRLSCAASGRTFHRYVMGWYRQAPGKERELVAAISKSGGRTYYADSVKGRFTISRDNAKNTVYLQMNSLKPEDTAVYYYNARTAAGALYDYWGQGTQVTVSS | high polyreactivity |
| QVQLVESGGGLVQAGGSLRLSCAASGRTFHVYAMGWYRPAPGKERELVATITDGSTNYADSVKGRFTISRDNAKNTVYLQMNSLKPEDSAVYYCATVRAWIPSGDYEYWGQGTQVTVSS | low polyreactivity |
| QVQLVESGGGLVQAGGSLRLSCAASGRTFHYNAMGWYRQAPGKERELVAAITRSGGSTYYADSVKGRFTISRDNAKNTVYLQMNSLKPEDTAVYYCAAGWRSVSVRYYGPSDYWGQGTQVTVSS | low polyreactivity |
| QVQLVESGGGLVQAGGSLRLSCAASGRTFHYYAMGWYRQAPGKERELVAAISVSGGSTYYADSVKGRFTISRDNAKNTVYLQMNSLKPEDTAVYYCAADDYLVEHDYWGQGTQVTVSS | low polyreactivity |
